# B1: Isoform 2 of Bardet-Biedl syndrome 7 protein (Homo sapiens), Q8IWZ6-2 (parent)
# chain: MDLILNRMDYLQVGVTSQKTMKLIPASRHRATQKVVIGDHDGVVMCFGMKKGEAAAVFKTLPGPKIARLELGGVINTPQEKIFIAAASEIRGFTKRGKQFLSFETNLTESIKAMHISGSDLFLSASYIYNHYCDCKDQHYYLSGDKINDVICLPVERLSRITPVLACQDRVLRVLQGSDVMYAVEVPGPPTVLALHNGNGGDSGEDLLFGTSDGKLALIQITTSKPVRKWEIQNEKKRGGILCIDSFDIVGDGVKDLLVGRDDGMVEVYSFDNANEPVLRFDQMLSESVTSIQGGCVGKDSYDEIVVSTYSGWVTGLTTEPIHKESGPGEELKINQEMQNKISSLRNELEHLQYKVLQERENYQQSSQSSKAKSAVPSFGINDKFTLNKDDASYSLILEVQTAIDNVLIQSDVPIDLLDVDKNSAVVSFSSCDSESNDNFLLATYRCQADTTRLELKIRSIEGQYGTLQAYVTPRIQPKTCQVRQYHIKPLSLHQRTHFIDHDRPMNTLTLTGQFSFAEVHSWVVFCLPEVPEKPPAGECVTFYFQNTFLDTQLESTYRKGEGVFKSDNISTISILKDVLSKEATKRKINLNISYEINEVSVKHTLKLIHPKLEYQLLLAKKVQLIDALKELQIHEGNTNFLIPEYHCILEEADHLQEEYKKQPAHLERLYG
# partner: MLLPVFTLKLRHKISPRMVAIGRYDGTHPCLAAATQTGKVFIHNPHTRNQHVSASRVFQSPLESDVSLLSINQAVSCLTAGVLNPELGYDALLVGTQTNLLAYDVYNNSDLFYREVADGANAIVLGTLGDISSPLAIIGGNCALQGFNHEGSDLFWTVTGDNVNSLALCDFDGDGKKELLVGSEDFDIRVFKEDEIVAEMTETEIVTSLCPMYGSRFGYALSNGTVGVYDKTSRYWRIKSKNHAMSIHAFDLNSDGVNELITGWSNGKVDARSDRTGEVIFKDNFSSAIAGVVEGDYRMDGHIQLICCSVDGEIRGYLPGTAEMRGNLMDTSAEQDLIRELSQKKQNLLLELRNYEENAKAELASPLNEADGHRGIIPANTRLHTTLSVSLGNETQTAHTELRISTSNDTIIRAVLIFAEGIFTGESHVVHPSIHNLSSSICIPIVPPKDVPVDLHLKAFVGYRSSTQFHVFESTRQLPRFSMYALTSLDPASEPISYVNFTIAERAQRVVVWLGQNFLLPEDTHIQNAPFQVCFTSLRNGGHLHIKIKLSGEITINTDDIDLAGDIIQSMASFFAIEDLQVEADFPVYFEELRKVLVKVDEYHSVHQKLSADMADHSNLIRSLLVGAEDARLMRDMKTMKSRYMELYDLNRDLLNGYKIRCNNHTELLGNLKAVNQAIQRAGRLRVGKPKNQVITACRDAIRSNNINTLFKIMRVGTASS
# Variants of: B1
# Conditions: with bbs2_human BBS2, Q9BXC9
row,effect of a mutation on the interaction,Variant
1,with no effect,F385E
2,with no effect,F385A
3,with no effect,F385K
4,with no effect,D383A
5,with no effect,D383K
6,with no effect,D383E
7,with no effect,T386A
8,with no effect,T386K
9,with no effect,T386E
10,with no effect,I381E
11,with no effect,I381A
12,with no effect,I381K
13,with no effect,S378K
14,with no effect,G380E
15,with no effect,G380A
16,with no effect,G380K

row,effect of a mutation on the interaction,Variant
1,with no effect,K384A
2,with no effect,K384E
3,with no effect,K389E
4,with no effect,K389A
5,with no effect,L387A
6,with no effect,L387K
7,with no effect,L387E
8,with no effect,F379A
9,with no effect,F379E
10,with no effect,F379K
11,with no effect,N388E
12,with no effect,N388K
13,with no effect,N388A
14,with no effect,N382E
15,with no effect,N382K
16,with no effect,N382A

# Second part, the variant before the results:
row,Variant,effect of a mutation on the interaction
1,N362A,with no effect
2,N362E,with no effect
3,N362K,with no effect
4,K373E,with no effect
5,K373A,with no effect
6,S369E,with no effect
7,S369A,with no effect
8,S369K,with no effect
9,A372E,with no effect
10,A372K,with no effect
11,Y363E,with no effect
12,Y363A,with no effect
13,Y363K,with no effect
14,S367K,with no effect
15,S367A,with no effect
16,S367E,with no effect
17,Q365K,with no effect
18,Q365A,with no effect
19,Q365E,with no effect
20,L357K,with no effect
21,L357E,with no effect

row,Variant,effect of a mutation on the interaction
1,L357A,with no effect
2,S366K,with no effect
3,S366E,with no effect
4,S366A,with no effect
5,S378E,with no effect
6,S378A,with no effect
7,Q358E,with no effect
8,Q358K,with no effect
9,Q358A,with no effect
10,E359A,with no effect
11,E359K,with no effect
12,K371A,with no effect
13,K371E,with no effect
14,P377K,with no effect
15,P377A,with no effect
16,P377E,with no effect
17,E361K,with no effect
18,E361A,with no effect
19,V356K,with no effect
20,V356E,with no effect
21,Q364K,with no effect

row,Variant,effect of a mutation on the interaction
1,Q364E,with no effect
2,Q364A,with no effect
3,V376E,with no effect
4,V376I,disrupting interaction strength
5,V376A,with no effect
6,V376K,with no effect
7,R360E,with no effect
8,R360K,with no effect
9,R360A,with no effect
10,S374A,with no effect
11,S374E,with no effect
12,S374K,with no effect
13,A375E,with no effect
14,A375K,with no effect
15,S370A,with no effect
16,S370E,with no effect
17,S370K,with no effect
18,Q368A,with no effect
19,Q368E,with no effect
20,Q368K,with no effect
